Key:
[1] = molecular target: T1, B型肉毒神经毒素 (botulinum neurotoxin type B) (Clostridium botulinum, UniProt P10844 2-1291); test: SPR (Biacore 3000, CM5 chip), […]
T1 sequence: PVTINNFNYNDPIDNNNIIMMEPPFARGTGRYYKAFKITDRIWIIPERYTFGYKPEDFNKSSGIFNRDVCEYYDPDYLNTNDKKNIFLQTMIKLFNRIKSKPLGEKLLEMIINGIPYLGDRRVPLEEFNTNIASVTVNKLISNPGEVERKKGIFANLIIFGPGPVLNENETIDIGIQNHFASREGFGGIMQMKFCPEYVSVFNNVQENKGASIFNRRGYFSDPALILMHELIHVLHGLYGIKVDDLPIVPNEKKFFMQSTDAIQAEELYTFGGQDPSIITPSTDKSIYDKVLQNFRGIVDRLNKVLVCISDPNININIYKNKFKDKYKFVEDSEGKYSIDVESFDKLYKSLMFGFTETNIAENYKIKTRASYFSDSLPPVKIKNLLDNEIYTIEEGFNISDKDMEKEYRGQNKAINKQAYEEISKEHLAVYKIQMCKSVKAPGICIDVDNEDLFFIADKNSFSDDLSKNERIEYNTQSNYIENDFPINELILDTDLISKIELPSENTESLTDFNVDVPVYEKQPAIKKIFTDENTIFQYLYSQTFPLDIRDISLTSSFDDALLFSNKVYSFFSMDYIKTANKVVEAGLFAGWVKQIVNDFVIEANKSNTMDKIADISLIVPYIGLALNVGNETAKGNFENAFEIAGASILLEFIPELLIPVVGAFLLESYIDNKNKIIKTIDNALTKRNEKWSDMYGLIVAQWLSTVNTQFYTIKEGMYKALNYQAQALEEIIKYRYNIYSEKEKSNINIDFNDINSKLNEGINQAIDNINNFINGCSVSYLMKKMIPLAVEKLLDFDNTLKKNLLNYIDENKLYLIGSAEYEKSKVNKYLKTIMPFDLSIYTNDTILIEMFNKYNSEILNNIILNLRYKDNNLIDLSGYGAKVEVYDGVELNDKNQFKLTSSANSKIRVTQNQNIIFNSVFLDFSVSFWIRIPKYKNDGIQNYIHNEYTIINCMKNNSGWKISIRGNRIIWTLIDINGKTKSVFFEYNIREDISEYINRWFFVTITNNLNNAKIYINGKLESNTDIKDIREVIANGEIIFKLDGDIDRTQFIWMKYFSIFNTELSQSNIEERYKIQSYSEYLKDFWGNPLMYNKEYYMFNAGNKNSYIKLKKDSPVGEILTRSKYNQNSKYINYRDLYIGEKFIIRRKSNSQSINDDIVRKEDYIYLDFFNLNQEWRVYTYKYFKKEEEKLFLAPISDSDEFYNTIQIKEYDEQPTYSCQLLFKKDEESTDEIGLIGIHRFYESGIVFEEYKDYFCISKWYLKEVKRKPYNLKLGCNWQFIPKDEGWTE

[2] = molecular target: T2, F型肉毒神经毒素 (botulinum neurotoxin type F) (Clostridium botulinum, UniProt P30996 1-1274); test: ELISA
T2 sequence: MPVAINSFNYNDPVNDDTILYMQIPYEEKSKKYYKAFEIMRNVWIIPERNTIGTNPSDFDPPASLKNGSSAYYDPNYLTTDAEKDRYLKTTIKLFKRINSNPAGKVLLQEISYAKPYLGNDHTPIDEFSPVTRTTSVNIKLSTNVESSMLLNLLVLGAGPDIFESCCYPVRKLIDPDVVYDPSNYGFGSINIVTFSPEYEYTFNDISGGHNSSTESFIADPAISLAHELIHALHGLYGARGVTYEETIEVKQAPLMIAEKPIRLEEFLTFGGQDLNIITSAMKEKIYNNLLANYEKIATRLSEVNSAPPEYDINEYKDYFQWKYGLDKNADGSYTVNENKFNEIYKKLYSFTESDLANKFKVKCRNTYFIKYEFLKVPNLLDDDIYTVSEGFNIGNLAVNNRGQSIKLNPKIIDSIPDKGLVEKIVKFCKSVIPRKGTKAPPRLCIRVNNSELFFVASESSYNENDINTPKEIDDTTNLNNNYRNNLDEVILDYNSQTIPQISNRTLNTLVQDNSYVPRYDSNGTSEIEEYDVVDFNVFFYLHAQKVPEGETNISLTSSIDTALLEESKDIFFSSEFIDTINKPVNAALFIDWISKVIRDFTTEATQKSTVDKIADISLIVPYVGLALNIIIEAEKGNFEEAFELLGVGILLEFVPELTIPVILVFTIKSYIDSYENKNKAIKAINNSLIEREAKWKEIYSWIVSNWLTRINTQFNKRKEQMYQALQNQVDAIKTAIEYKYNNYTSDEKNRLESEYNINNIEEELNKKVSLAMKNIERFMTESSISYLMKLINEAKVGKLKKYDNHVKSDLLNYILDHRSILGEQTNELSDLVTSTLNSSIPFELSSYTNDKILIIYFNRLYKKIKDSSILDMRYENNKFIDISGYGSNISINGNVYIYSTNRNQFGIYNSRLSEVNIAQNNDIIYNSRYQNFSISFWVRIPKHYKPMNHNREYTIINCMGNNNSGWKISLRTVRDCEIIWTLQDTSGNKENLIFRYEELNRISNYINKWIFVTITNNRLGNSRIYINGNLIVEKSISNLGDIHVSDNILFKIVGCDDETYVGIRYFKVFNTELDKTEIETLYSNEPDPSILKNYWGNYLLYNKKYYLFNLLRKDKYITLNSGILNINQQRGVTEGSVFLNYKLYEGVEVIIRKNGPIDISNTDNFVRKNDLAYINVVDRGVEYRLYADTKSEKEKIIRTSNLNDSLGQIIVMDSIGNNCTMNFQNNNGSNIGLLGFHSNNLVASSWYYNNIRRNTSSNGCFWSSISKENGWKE

[3] = molecular target: A型肉毒神经毒素 (botulinum neurotoxin type A) (Clostridium botulinum, UniProt P0DPI0 2-1296); test: ELISA
Chain of A型肉毒神经毒素 (botulinum neurotoxin type A) (P0DPI0 2-1296 limits assumed): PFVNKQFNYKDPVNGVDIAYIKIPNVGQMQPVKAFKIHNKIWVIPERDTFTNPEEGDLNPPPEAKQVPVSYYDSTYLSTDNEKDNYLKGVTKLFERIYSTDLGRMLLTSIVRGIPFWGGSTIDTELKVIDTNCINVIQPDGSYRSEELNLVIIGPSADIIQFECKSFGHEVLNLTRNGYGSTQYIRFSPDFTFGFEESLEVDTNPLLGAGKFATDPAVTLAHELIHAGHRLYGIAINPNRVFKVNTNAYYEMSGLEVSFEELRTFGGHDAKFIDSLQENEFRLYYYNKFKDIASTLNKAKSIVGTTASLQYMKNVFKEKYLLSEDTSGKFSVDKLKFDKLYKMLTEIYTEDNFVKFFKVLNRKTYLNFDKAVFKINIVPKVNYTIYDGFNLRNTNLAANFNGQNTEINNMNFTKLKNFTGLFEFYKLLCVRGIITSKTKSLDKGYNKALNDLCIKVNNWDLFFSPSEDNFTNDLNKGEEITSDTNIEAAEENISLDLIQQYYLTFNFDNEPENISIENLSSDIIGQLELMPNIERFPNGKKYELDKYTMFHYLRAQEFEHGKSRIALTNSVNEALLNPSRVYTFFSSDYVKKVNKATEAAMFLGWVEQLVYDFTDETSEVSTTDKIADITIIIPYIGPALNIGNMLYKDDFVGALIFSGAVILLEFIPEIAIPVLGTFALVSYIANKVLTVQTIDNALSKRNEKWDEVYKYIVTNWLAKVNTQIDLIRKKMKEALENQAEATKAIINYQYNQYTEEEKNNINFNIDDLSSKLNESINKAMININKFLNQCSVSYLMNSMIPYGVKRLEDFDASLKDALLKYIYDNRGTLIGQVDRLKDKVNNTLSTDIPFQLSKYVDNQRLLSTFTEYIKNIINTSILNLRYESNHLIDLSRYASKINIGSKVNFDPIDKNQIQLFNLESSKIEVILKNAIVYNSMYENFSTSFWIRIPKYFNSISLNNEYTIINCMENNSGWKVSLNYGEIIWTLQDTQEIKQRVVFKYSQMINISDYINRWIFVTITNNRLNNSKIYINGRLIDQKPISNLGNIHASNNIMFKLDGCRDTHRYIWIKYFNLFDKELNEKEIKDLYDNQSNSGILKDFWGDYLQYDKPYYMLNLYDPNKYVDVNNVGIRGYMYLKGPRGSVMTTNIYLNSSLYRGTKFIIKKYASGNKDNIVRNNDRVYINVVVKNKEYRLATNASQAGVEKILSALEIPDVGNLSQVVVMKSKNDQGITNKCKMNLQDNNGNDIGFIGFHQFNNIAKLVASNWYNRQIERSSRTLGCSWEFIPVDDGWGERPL

[4] = molecular target: T3, E型肉毒神经毒素 (botulinum neurotoxin type E) (Clostridium botulinum, UniProt Q00496 2-1251); test: ELISA
T3 sequence: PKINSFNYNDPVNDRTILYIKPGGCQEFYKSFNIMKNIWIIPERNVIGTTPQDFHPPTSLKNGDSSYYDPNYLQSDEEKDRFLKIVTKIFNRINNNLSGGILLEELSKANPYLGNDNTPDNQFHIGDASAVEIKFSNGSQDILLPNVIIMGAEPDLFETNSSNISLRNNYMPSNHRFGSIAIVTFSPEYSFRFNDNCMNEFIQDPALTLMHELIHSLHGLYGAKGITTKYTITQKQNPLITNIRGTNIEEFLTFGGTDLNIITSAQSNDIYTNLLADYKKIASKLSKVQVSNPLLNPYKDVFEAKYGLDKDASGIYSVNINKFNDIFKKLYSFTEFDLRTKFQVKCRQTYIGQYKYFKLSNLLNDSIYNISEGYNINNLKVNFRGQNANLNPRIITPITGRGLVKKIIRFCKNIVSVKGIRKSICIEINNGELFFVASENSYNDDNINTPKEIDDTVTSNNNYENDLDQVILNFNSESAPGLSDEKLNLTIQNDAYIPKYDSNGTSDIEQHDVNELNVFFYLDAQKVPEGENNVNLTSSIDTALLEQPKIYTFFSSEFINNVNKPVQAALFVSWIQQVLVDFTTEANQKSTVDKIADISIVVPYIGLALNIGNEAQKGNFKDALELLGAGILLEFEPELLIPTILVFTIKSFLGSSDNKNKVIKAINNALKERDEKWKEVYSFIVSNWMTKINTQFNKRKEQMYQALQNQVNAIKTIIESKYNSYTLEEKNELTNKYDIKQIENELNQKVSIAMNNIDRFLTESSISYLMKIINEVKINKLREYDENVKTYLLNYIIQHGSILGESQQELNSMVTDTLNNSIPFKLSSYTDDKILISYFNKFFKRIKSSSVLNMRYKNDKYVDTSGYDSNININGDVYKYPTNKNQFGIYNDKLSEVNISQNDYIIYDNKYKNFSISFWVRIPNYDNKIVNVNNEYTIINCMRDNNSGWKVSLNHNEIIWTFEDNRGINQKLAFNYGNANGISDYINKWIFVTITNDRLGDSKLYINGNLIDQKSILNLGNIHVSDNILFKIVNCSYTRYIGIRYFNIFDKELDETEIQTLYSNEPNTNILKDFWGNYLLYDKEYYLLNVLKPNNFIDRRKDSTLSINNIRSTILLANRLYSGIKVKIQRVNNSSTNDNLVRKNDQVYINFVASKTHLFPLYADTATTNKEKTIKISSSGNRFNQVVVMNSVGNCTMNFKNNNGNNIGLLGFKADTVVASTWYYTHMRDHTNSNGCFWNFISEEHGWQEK

B1: 人源化抗B型肉毒神经毒素中和性抗体HuBNbP8 (recombinant MBP-scFv fusion protein expressed from pMAL-HuFv) (scFv)
scFv: AQVQLVQSGAEVVKPGASVKLSCKASGYTFTSYYIYWVKQRPGQGLGWIGEIYPSNGGTNFNEKFKTKATLTVDKSASTAYMQLSSLTSEDSTVYYCARMGNYGGSYFDYWGQGTTLTVSSGGGGSGGGGSGGGGSDIVLTQSPATLSVTPGESVSLSCGASQSISNNLHWYQQKSHESPRLLIKFASQSISGIPSKFSGSGSGTDFSLSINSLETEDFGVFFCQQSDTWPYTFGGGTKLEIKRAAAE
[1]
  Kd: 1.34 nM
[2]
  binding result: no binding
[3]
  binding result: no binding
[4]
  binding result: no binding

B2: 鼠源抗B型肉毒神经毒素中和性抗体MuBNbP8 (recombinant MBP-scFv fusion protein expressed from pMAL-MuFv) (scFv)
scFv: AQVKLQQSGAELVKPGASVKLSCKASGYTFTSYYIYWVKQRPGQGLGWIGEIYPSNGGTNFNEKFKTKATLTVDKSSSTAYMQLSSLTSEDSTVYYCARMGNYGGSYFDYWGQGTTLTVSSGGGGSGGGGSGGGGSDIVLTQSPATLSVTPGDSVSLSCGASQSISNNLHWYQQKSHESPRLLIKFASQSISGIPSKFSGSGSGTDFSLSINSLETEDFGVFFCQQSDTWPYTFGGGTKLEIKRAAAE
[2]
  binding result: no binding
[3]
  binding result: no binding
[4]
  binding result: no binding
